Results published in patent US7105484 (Genentech, dated 2006).

Biological target: T1, GDNFRα (full length, GPI-linked, expressed on cells) (rat, UniProt Q62997 25-430)
T1 construct: also called GDNF receptor α; recombinant GDNFRα
T1 sequence: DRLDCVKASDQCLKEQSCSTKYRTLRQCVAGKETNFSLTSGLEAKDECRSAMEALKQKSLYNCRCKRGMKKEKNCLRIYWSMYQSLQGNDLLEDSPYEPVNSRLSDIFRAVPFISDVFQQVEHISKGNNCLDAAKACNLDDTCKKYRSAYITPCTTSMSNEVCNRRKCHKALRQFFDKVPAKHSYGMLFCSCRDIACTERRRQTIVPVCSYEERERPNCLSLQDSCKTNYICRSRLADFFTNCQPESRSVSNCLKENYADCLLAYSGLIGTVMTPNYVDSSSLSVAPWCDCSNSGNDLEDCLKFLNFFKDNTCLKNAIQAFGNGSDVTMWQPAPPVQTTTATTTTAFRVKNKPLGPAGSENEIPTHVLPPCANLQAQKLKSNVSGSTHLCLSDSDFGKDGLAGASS
Experiment: competition binding of 50 pM 125I GDNF against cold GDNF on CHO cells stably expressing GDNFRα; Scatchard analysis, IGOR program
Excerpt: Competition binding experiments further indicate that GDNF binds specifically and reversibly to GDNFRα expressing cells. […] The IGOR program was used to determine K_d.

B1: GDNF (Glial-cell Derived Neurotrophic Factor) (ligand)
chain: SPDKQMAVLPRRERNRQAAAANPENSRGKGRRGQRGKNRGCVLTAIHLNVTDLGLGYETKEELIFRYCSGSCDAAETTYDKILKNLSRNRRLVSDKVGQACCRPIAFDDDLSFLDDNLVYHILRKHSAKRCGCI
modifications: The tracer form is 125I-iodinated, and the iodinated residues are not stated. Per our card (not shown to me), active GDNF is a disulfide-bonded homodimer; one protomer is given.
Kd: ~0.063 nM
